Data reported in patent US20030138946A1.

T1: soluble H-2 K^b (K^bsol): heterodimer of truncated K^b heavy chain and murine β-2 microglobulin, purified from Drosophila cells (murine), P01901
T1 chain 1: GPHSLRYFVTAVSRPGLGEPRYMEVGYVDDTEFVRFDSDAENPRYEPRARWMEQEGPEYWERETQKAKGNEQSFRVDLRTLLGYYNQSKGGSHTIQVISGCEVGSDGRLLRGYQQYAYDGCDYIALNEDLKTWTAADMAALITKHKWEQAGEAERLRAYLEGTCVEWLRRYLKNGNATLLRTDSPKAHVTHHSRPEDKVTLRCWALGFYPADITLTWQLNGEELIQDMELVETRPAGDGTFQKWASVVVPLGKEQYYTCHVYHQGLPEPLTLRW
T1 chain 2: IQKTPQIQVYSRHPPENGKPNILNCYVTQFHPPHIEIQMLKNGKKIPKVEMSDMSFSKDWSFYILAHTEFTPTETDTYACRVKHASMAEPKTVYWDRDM


Molecular target: T1, soluble H-2 K^b (K^bsol): heterodimer …

| Binder | Kd [nM] |
| --- | --- |
| SIINFEKL (modifications not checked) [OVA-8 (ovalbumin 257-264)] | 4.1 |
| SIINFEKLTE (modifications not checked) [OVA-10C] | 14 |
| LESIINFEKL (modifications not checked) [OVA-10N] | 280 |
| SIINFEKLT (modifications not checked) [OVA-9C] | 11 |
